In the DeepSol protein solubility set:

Experiment: soluble on expression in E. coli; label from the status in PepcDB or PDB records

Sequence | soluble on expression in E. coli
MRGMLPLFEPKGRVLLVDGHHLAYRTFHALKGLTTSRGEPVQAVYGFAKSLLKALKEDGDAVIVVFDAKAPSFRHEAYGGYKAGRAPTPEDFPRQLALIKELVDLLGLARLEVPGYEADDVLASLAKKAEKEGYEVRILTADKDLYQLLSDRIHVLHPEGYLITPAWLWEKYGLRPDQWADYRALTGDESDNLPGVKGIGEKTARKLLEEWGSLEALLKNLDRLKPAIREKILAHMDDLKLSWDLAKVRTDLPLEVDFAKRREPDRERLRAFLERLEFGSLLHEFGLLESPKALEEAPWPPPEGAFVGFVLSRKEPMWADLLALAAARGGRVHRAPEPYKALRDLKEARGLLAKDLSVLALREGLGLPPGDDPMLLAYLLDPSNTTPEGVARRYGGEWTEEAGERAALSERLFANLWGRLEGEERLLWLYREVERPLSAVLAHMEATGVRLDVAYLRALSLEVAEEIARLEAEVFRLAGHPFNLNSRDQLERVLFDELGLPAIGKTEKTGKRSTSAAVLEALREAHPIVEKILQYRELTKLKSTYIDPLPDLIHPRTGRLHTRFNQTATATGRLCCCDPNLQNIPVRTPLGQRIRRGFIAEEGWLLVALDYSQIELRVLAHLSGDENLIRVFQEGRDIHTETASWMFGVPREAVDPLMRRAAKTINFGVLYGMSAHRLSQELAIPYEEAQAFIERYFQSFPKVRAWIEKTLEEGRRRGYVETLFGRRRYVPDLEARVKSVREAAERMAFNMPVQGTAADLMKLAMVKLFPRLEEMGARMLLQVHDELVLEAPKERAEAVARLAKEVMEGVYPLAVPLEVEVGIGEDWLSAKE | soluble
MASNSRSSISPWTFSQNKMFERALAVYDKDTPDRWHNVAKAVGGKTVEEVKRHYDILVEDLINIETGRVPLPNYKTFESNSRSINDFDTRYITKYLYMMLSIYFDNHSSDFEKFSQKVLVSYISLV | soluble
VEREVLMNGTQAVAHAAMYADVDVVAAYPIRPYTEVMDTISKLIADGELDAEFIVAEGEHGQFETVKHASLAGARTLVGSSGVGWLYAMEAIVVTATDRAPVVAIIGNRALDDPGAYGVEHNDALMVRDVGWLLVWVDTAQEAFDTALLAYRIAEDQRVLLPLGISMDGGFLTHSEQIVRLPPRELVKNFLPPYNRGKYLVHPDNPITVAPQVNEDWVMEIRRQHEEAMERARSVIVEAYEEFKKVFGRYPGSTSDLQMPE | not soluble
MNLTVSHLDKLRLPLLHKIYKENYPSGKPKGKEEIIVIEGDKKILGAMRIKTYEECHFLTGMMIIKERRGESLGSQLLFKLNEFLSLEHCYCFCEPQLSEFYLKNDFIHIDKKNIPHVLKSKHDRYTNTGKELDILLYKKTNN | not soluble
MATAAETSASEPEAESKAGPKADGEEDEVKAARTRRKVLSRAVAAATYKTMGPAWDQQEEGVSESDGDEYAMASSAESSPGEYEWEYDEEEEKNQLEIERLEEQLSINVYDYNCHVDLIRLLRLEGELTKVRMARQKMSEIFPLTEELWLEWLHDEISMAQDGLDREHVYDLFEKAVKDYICPNIWLEYGQYSVGGIGQKGGLEKVRSVFERALSSVGLHMTKGLALWEAYREFESAIVEAARLEKVHSLFRRQLAIPLYDMEATFAEYEEWSEDPIPESVIQNYNKALQQLEKYKPYEEALLQAEAPRLAEYQAYIDFEMKIGDPARIQLIFERALVENCLVPDLWIRYSQYLDRQLKVKDLVLSVHNRAIRNCPWTVALWSRYLLAMERHGVDHQVISVTFEKALNAGFIQATDYVEIWQAYLDYLRRRVDFKQDSSKELEELRAAFTRALEYLKQEVEERFNESGDPSCVIMQNWARIEARLCNNMQKARELWDSIMTRGNAKYANMWLEYYNLERAHGDTQHCRKALHRAVQCTSDYPEHVCEVLLTMERTEGSLEDWDIAVQKTETRLARVNEQRMKAAEKEAALVQQEEEKAEQRKRARAEKKALKKKKKIRGPEKRGADEDDEKEWGDDEEEQPSKRRRVENSIPAAGETQNVEVAAGPAGKCAAVDVEPPSKQKEKAASLKRDMPKVLHDSSKDSITVFVSNLPYSMQEPDTKLRPLFEACGEVVQIRPIFSNRGDFRGYCYVEFKEEKSALQALEMDRKSVEGRPMFVSPCVDKSKNPDFKVFRYSTSLEKHKLFISGLPFSCTKEELEEICKAHGTVKDLRLVTNRAGKPKGLAYVEYENESQASQAVMKMDGMTIKENIIKVAISNPPQRKVPEKPETRKAPGGPMLLPQTYGARGKGRTQLSLLPRALQRPSAAAPQAENGPAAAPAVAAPAATEAPKMSNADFAKLFLRK | soluble
MSNSAKLIDVITKVALPIGIIASGIQYSMYDVKGGSRGVIFDRINGVKQQVVGEGTHFLVPWLQKAIIYDVRTKPKSIATNTGTKDLQMVSLTLRVLHRPEVLQLPAIYQNLGLDYDERVLPSIGNEVLKSIVAQFDAAELITQREIISQKIRKELSTRANEFGIKLEDVSITHMTFGPEFTKAVEQKQIAQQDAERAKFLVEKAEQERQASVIRAEGEAESAEFISKALAKVGDGLLLIRRLEASKDIAQTLANSSNVVYLPSQHSGGGNSESSGSPNSLLLNIGR | not soluble
MMTDLSTPDLPRMSAAIAEPTSHDPDSGGHFGGPSGWGGRYVPEALMAVIEEVTAAYQKERVSQDFLDDLDRLQANYAGRPSPLYEATRLSQHAGSARIFLKREDLNHTGSHKINNVLGQALLARRMGKTRVIAETGAGQHGVATATACALLGLDCVIYMGGIDTARQALNVARMRLLGAEVVAVQTGSKTLKDAINEAFRDWVANADNTYYCFGTAAGPHPFPTMVRDFQRIIGMEARVQIQGQAGRLPDAVVACVGGGSNAIGIFHAFLDDPGVRLVGFEAAGDGVETGRHAATFTAGSPGAFHGSFSYLLQDEDGQTIESHSISAGLDYPGVGPEHAWLKEAGRVDYRPITDSEAMDAFGLLCRMEGIIPAIESAHAVAGALKLGVELGRGAVIVVNLSGRGDKDVETAAKWFGLLGND | soluble
IVHREHHESREEVSVSSGKNNPFYFNSDRWFRTLYRNEWGHIRVLQRFDQRSKQMQNLENYRVVEFKSKPNTLLLPHHADADFLLVVLNGTAVLTLVNPDSRDSYILEQGHAQKIPAGTTFFLVNPDDNENLRIIKLAIPVNNPHRFQDFFLSSTEAQQSYLRGFSKNILEASFDSDFKEINRVLFGEERQQQQGEESREEGVIVELKREQIQELMKHAKSSSRKELSSQDEPFNLRNSKPIYSNKFGRWYEMTPEKNPQLKDLDVFISSVDMKEGALLLPHYSSKAIVIMVINEGEAKIELVGLSDQQQQKQQEESLEVQRYRAELSEDDVFVIPAAYPVAINATSNLNFFAFGINAENNRRNFLAGGKDNVMSEIPTEVLEVSFPASGKKVEKLIKKQSESHFVDAQPEQQQREEGHKGRKGSLSSILGSLY | soluble
MGSDKIHHHHHHMPNPTRAFLLGPLLKGVSRSFYLTLRVLPAGMRDPIGLAYLLARAADTIADTSLIAPQRRLTLLLSLREQVNGATDDAALFQRMAAEVAGQQVQSDEKVLLESLGPALDVLSQLNEFDRKAVREIVSTLTEGMEFDLRTFPDERSGQIAALREYDELDRYTYLVAGCVGEFWTTMTYAHMPGTLKERADVMARRGVRFGKALQMTNVLRDCGKDLRIGRCYLPQTMLDRYGLSPQDLLRPDNSVRARPLMIELLRKTVDHFREALDYTLAIPASAVRLRLASLWPILIGLETLILLADNDAWLDPQKVSKVRRNKVYQIIASSLLLVPSNGLVRHAVERRIRQIEARF | not soluble
MDWGMQSRLSWIFNPKTGKTVMLAFDHGYFQGPTIGLERIDINIAPLFEHADVLMCTRGILRSVVPPATNKPVVLRASGANSILAELSNEAVALSMDDAVRLNSCAVAAQVYIGSEYEHQSIKNIIQLVDAGMKVGMPTMAVTGVGKDMVRDQRYFSLATRIAAEMGAQIIKTYYVEKGFERIVAGCPVPIVIAGGKKLPERETLEMCWQAIDQGASGVDMGRNIFQSDHPVAMMKAVQAVVHHNETADRAYELYLSEKQ | not soluble
MKSVMSNPTFRQDSIRMFRGRKPPQKGKPAMEIKSERSDSQHTLTITVPLGKASRNDQPPSNLTEEAAKKVAGTGRNDGKKVQFAEKLVNKTKSPSTGPSTSKKLQKSQKTQKSSKKSQKKSKKSKKSSKSK | not soluble
MGHHHHHHSHSGGRNKIRKILDKTRFSILPPKLFSDGGLSQSQDDSIVGTRHCRHSLAIMPIPGTLSSSSPDLLQPTTSMLDFSNPSDIPDQVIRVFKVDQQSCYIIISKDTTAKEVVFHAVHEFGLTGASDTYSLCEVSVTPEGVIKQRRLPDQFSKLADRIQLNGRYYLKNNMETETLC | not soluble
MDPFRFQVEARAGRARVGRLFTPHGAVETPLFMPVGTAGSVKGLMPKDLEAIGSQVLLTNTYHLLLRPGPERVRALGGLHGFAGWKGPWLTDSGGFQVMSLGHMRRIDEEGVVFQSHLDGRLIKLTPERSIAVQEALGADLIMAFDECPPYPSPREYLEASLERTLRWLERSLKAKTRPDQALFGIAQGGTDPELRRRSTLETIRFDLPGYAIGGLAVGEPKEAMFAMVELSTRLLPEDRPRYLMGVGHPEDLVAAMGLGVDLFDCVYPTRTGRFGSALVPEGRLNLKNARFLEDRRPLEEGCDCYTCQTFGRAYLAHLVRAGEMLGGILLSLHNLRHLHRLTEAARQAIREGRYGDFAREFARRRFGREVPPWFREALAAGGHG | soluble
MSFDKKVTIAHLSDLHFASKNDRYLTARLDTMLGEFVRRKYDHLVMTGDLIDTASPALWTIIRDALVRHGLFDWTKTTVIPGNHDLIDLEEEMRFYNALNPDDRSRQHRVDDRLRQFNAIFRPLITDNGDALAGVPFVKVMRLGGISLSFVAVNTVDPWSGLDNPAGARGSVSPETLRALQEPGVRQVLDDTFIIGLCHHAYKVYGTGALVDQVFDWTMEFKNRDEYLKAMKNLGVRLVLHGHFHRFQVYQANGINFINGGSFRYSPERYGELVINADGRWSHRFVNLALKKLEHHHHHH | not soluble
MAPQNKPYFTYNNEIIGEATQSNPLGNVVRTTISFKSDDKVSDLISTISKAVQFHKNNSASGENVTINENDFINQLKANGVTVKTVQPSNKNEKAYEAIDKVPSTSFNITLSATGDNNQTATIQIPMVPQGASTPTDTTQNPQINWTKGGQAQSSSLNGQVFQVAVGSNFNPLNFTNSNGENIIVSAQQSKNNTTFASIEATSNPVNTSEAGRYYNVTLTATGNTGKKTTATYTVLITSSQKQTLYGNGESTISTYSIYGNNVLSNSTTFKDGDQVYVSDQTKTVGGVSYSQVSPKSKNDANSSNIWVKTSALVKPAGDTNVKTYPVMVDSRAYDKNGNYLGHMYYAYDNIDIVPTVVTINGKTYYKVANKDEYVRVTNITGNQRTLKHNAYIYWSSYRRTPGTGKMYRGQTVTTYGPQMKFKNGKKYYRIEGCRNNNKRYIKAVNFYLEHHHHHH | soluble
KTKALIIEDKTLTDDQRKEQLLGVDTEYAKGIENIDAAKDAAGVDKAYSDGVRDILAQYKEGQNLNDRRNAAKEFL | not soluble
MGSDKIHHHHHHMADRPHAEEGQTAGPAGQPGVAAWLDNQPPKWRPVASAIGSLELMTFFQFVLAAVLMSALPAHGADRIIYLTFDDGPLNGTSNILDVLEAEQVPATLFMVGMHAEAGASNKALVRRAKAMPLVTIGNHSYTHAYNHYRHFYGDTEGVVADMLMANVVLGLKPAVHARLPGRDVFRLPSMSKDDNSLGPAQAGREDPDYEFVAASGFYLYGWDHEWVHKDSGEPVQSVDHLVSEIDHLFGYGHFAKPGKLILLMHDEMFQDGFDGKTKLTDLITALKLRHYAFGTIPNYDH | not soluble
MTNKDIYKNNPLHGTSLETVLTTLVDHYGFEILAAYMNLNCFKQNASIESSLKFLKKTQWAQEKVEAFYMYQYNSLPKADDANFELPPRDRIVPSGLEQRPPKELSLDDAEELRIKQAKKTRERAAAATSANPWGSRLEHHHHHH | not soluble
MNVSSSNEDTPNAPDMLSWCVHTQDNHPLPLPELKAKLLALGIDADTYALTTGLSMELEPTTLADAGYDRYQRPLLLTVDAARAWHAMRQAAVGDGIVLDAISGYRSYAYQFGILERKLAQGKTLQEILTVNAAPGFSEHHSGEALDIGMPGESPVEESFEGSSAFAWLHRHAGRFGFHLSYPRNNPHGIVYEPWHWRWRAR | not soluble
